Key:
FtsZ(K380A) (E. coli) = FtsZ(K380A) (E. coli) (UniProt P0A9A6)
FtsZ(Δ380-383) (E. coli) = FtsZ(Δ380-383) (E. coli) (UniProt P0A9A6)
[1] = molecular target: E. coli FtsZ (wild type) (E. coli) (UniProt P0A9A6)
FtsZ(Δ375-383) (E. coli) = FtsZ(Δ375-383) (E. coli) (UniProt P0A9A6)
FtsZ(R379E) (E. coli) = FtsZ(R379E) (E. coli) (UniProt P0A9A6)
FtsZ(F377A) (E. coli) = FtsZ(F377A) (E. coli) (UniProt P0A9A6)
FtsZ(P375G) (E. coli) = FtsZ(P375G) (E. coli) (UniProt P0A9A6)
[2] = molecular target: the molecule itself; test: 90° light scattering; 8 µM FtsZ wild type or mutant in assembly buffer, polymerisation after addition of 1 mM GTP; self-association into polymers
ClpX(E185Q) = molecular target: T1, ClpX(E185Q) (E. coli, UniProt P0A6H1 1-424, E185Q); test: co-sedimentation; 250 pmol FtsZ wild type or mutant polymerised with 2 mM GTP in assembly buffer (50 mM MES pH 6.5, 50 mM KCl, 10 mM MgCl2) with acetate kinase and acetyl phosphate; 1.5, 5.0 or 12.5 pmol ClpX(E185Q) and 4 mM ATP added, 25 µl, 10 min; 129,000×g 30 min; SDS-PAGE, Coomassie, densitometry; background without GTP subtracted; conditions: both partners purified
T1 construct: ClpX, Escherichia coli, ATP hydrolysis defective mutant E185Q; Concentrations are reported for ClpX hexamers; also called ATP hydrolysis defective mutant of ClpX

[3] = molecular target: E. coli FtsZ (wild type) (E. coli) (UniProt P0A9A6); remark: listed apart in the source
[4] = molecular target: the molecule itself; test: negative-stain electron microscopy; FtsZ mutant proteins (5 µM) incubated with GTP, negative staining with uranyl acetate; filaments

For “E. coli ClpX (wild type) (from UniProt P0A6H1 1-424) (enzyme)”, which reduction of the rate of degradation by ClpXP against wild type FtsZ, in both the presence and absence of GTP (FtsZ(K380A) (E. coli)) is on record?
The reduction of the rate of degradation by ClpXP against wild type FtsZ, in both the presence and absence of GTP was 55%.

And the reduction of the rate of degradation by ClpXP against wild type FtsZ, in the absence of GTP (FtsZ(Δ380-383) (E. coli))?
The reduction of the rate of degradation by ClpXP against wild type FtsZ, in the absence of GTP was 65%.

What about the reduction of the rate of degradation by ClpXP against wild type FtsZ, in the presence of GTP (FtsZ(Δ380-383) (E. coli)) of the same molecule?
Its reduction of the rate of degradation by ClpXP against wild type FtsZ, in the presence of GTP is 75%.

And the rate of degradation of fluorescent FtsZ (10 µM) by ClpXP (1 µM) in the absence of GTP, ultrafiltration assay [1]?
Its rate of degradation of fluorescent FtsZ (10 µM) by ClpXP (1 µM) in the absence of GTP, ultrafiltration assay is 0.11 min⁻¹.

And the rate of degradation of fluorescent FtsZ (10 µM) by ClpXP (1 µM) in the presence of GTP, ultrafiltration assay [1]?
Its rate of degradation of fluorescent FtsZ (10 µM) by ClpXP (1 µM) in the presence of GTP, ultrafiltration assay is 0.2 min⁻¹.

What about the reduction of the rate of degradation by ClpXP against wild type FtsZ, in the absence of GTP (FtsZ(Δ375-383) (E. coli)) of the same molecule?
Its reduction of the rate of degradation by ClpXP against wild type FtsZ, in the absence of GTP is 65%.

What about the reduction of the rate of degradation by ClpXP against wild type FtsZ, in the presence of GTP (FtsZ(Δ375-383) (E. coli)) of the same molecule?
Its reduction of the rate of degradation by ClpXP against wild type FtsZ, in the presence of GTP is 75%.

What about the reduction of the rate of degradation by ClpXP against wild type FtsZ, in both the presence and absence of GTP (FtsZ(R379E) (E. coli)) of the same molecule?
The reduction of the rate of degradation by ClpXP against wild type FtsZ, in both the presence and absence of GTP was 75%.

And the reduction of the rate of degradation by ClpXP against wild type FtsZ, in the presence of GTP (no similar reduction without GTP) (FtsZ(F377A) (E. coli))?
Its reduction of the rate of degradation by ClpXP against wild type FtsZ, in the presence of GTP (no similar reduction without GTP) is 50%.

What about the reduction of the rate of degradation by ClpXP against wild type FtsZ, in the presence of GTP (no similar reduction without GTP) (FtsZ(P375G) (E. coli)) of the same molecule?
The reduction of the rate of degradation by ClpXP against wild type FtsZ, in the presence of GTP (no similar reduction without GTP) was 50%.

B1: FtsZ(352AAA, Δ375-383) (domain or fragment, E. coli, UniProt P0A9A6 1-374, looked up)
chain: MFEPMELTNDAVIKVIGVGGGGGNAVEHMVRERIEGVEFFAVNTDAQALRKTAVGQTIQIGSGITKGLGAGANPEVGRNAADEDRDALRAALEGADMVFIAAGMGGGTGTGAAPVVAEVAKDLGILTVAVVTKPFNFEGKKRMAFAEQGITELSKHVDSLITIPNDKLLKVLGRGISLLDAFGAANDVLKGAVQGIAELITRPGLMNVDFADVRTVMSEMGYAMMGSGVASGEDRAEEAAEMAISSPLLEDIDLSGARGVLVNITAGFDLRLDEFETVGNTIRAFASDNATVVIGTSLDPDMNDELRVTVVATGIGMDKRPEITLVTNKQVQQPVMDRYQQHGMAPLTQEQAAAAKVVNDNAPQTAKEPDYLDI
notes: also called double mutant; source: E. coli BL21 (λDE3), purified like wild type FtsZ
Does B1 bind [2]?
Result: binds

Does B1 bind (ClpX(E185Q))?
Result: binds

B2: FtsZ(Δ375-383) (domain or fragment, E. coli, UniProt P0A9A6 1-374, looked up)
chain: MFEPMELTNDAVIKVIGVGGGGGNAVEHMVRERIEGVEFFAVNTDAQALRKTAVGQTIQIGSGITKGLGAGANPEVGRNAADEDRDALRAALEGADMVFIAAGMGGGTGTGAAPVVAEVAKDLGILTVAVVTKPFNFEGKKRMAFAEQGITELSKHVDSLITIPNDKLLKVLGRGISLLDAFGAANDVLKGAVQGIAELITRPGLMNVDFADVRTVMSEMGYAMMGSGVASGEDRAEEAAEMAISSPLLEDIDLSGARGVLVNITAGFDLRLDEFETVGNTIRAFASDNATVVIGTSLDPDMNDELRVTVVATGIGMDKRPEITLVTNKQVQQPVMDRYQQHGMAPLTQEQKPVAKVVNDNAPQTAKEPDYLDI
notes: Alexa-labelled in the degradation reactions, unlabelled in co-sedimentation; also called deletion mutant lacking the C-terminal nine amino acids; source: E. coli BL21 (λDE3), purified like wild type FtsZ
Does B2 bind (ClpX(E185Q))?
Result: binds

B3: MinC (natural protein)
chain: MSNTPIELKGSSFTLSVVHLHEAEPKVIHQALEDKIAQAPAFLKHAPVVLNVSALEDPVNWSAMHKAVSATGLRVIGVSGCKDAQLKAEIEKMGLPILTEGKEKAPRPAPTPQAPAQNTTPVTKTRLIDTPVRSGQRIYAPQCDLIVTSHVSAGAELIADGNIHVYGMMRGRALAGASGDRETQIFCTNLMAELVSIAGEYWLSDQIPAEFYGKAARLQLVENALTVQPLN
B3 was tested. Which inhibition of degradation of fluorescent FtsZ (5 µM, with GTP) by ClpXP (0.5 µM) at 2, 5, 10 and 20 µM MinC; the pair that is blocked: FtsZ with ClpX (ClpXP) [3] did it give?
The inhibition of degradation of fluorescent FtsZ (5 µM, with GTP) by ClpXP (0.5 µM) at 2, 5, 10 and 20 µM MinC; the pair that is blocked: FtsZ with ClpX (ClpXP) was 80%.

B4: FtsZ(Δ380-383) (domain or fragment, E. coli, UniProt P0A9A6 1-379, looked up)
chain: MFEPMELTNDAVIKVIGVGGGGGNAVEHMVRERIEGVEFFAVNTDAQALRKTAVGQTIQIGSGITKGLGAGANPEVGRNAADEDRDALRAALEGADMVFIAAGMGGGTGTGAAPVVAEVAKDLGILTVAVVTKPFNFEGKKRMAFAEQGITELSKHVDSLITIPNDKLLKVLGRGISLLDAFGAANDVLKGAVQGIAELITRPGLMNVDFADVRTVMSEMGYAMMGSGVASGEDRAEEAAEMAISSPLLEDIDLSGARGVLVNITAGFDLRLDEFETVGNTIRAFASDNATVVIGTSLDPDMNDELRVTVVATGIGMDKRPEITLVTNKQVQQPVMDRYQQHGMAPLTQEQKPVAKVVNDNAPQTAKEPDYLDIPAFLR
notes: also called deletion mutant that lacks the C-terminal four amino acid variable region; source: E. coli BL21 (λDE3), purified like wild type FtsZ
Does B4 bind [2]?
Result: binds

B5: E. coli FtsZ (wild type) (natural protein, UniProt P0A9A6 1-383, looked up)
chain: MFEPMELTNDAVIKVIGVGGGGGNAVEHMVRERIEGVEFFAVNTDAQALRKTAVGQTIQIGSGITKGLGAGANPEVGRNAADEDRDALRAALEGADMVFIAAGMGGGTGTGAAPVVAEVAKDLGILTVAVVTKPFNFEGKKRMAFAEQGITELSKHVDSLITIPNDKLLKVLGRGISLLDAFGAANDVLKGAVQGIAELITRPGLMNVDFADVRTVMSEMGYAMMGSGVASGEDRAEEAAEMAISSPLLEDIDLSGARGVLVNITAGFDLRLDEFETVGNTIRAFASDNATVVIGTSLDPDMNDELRVTVVATGIGMDKRPEITLVTNKQVQQPVMDRYQQHGMAPLTQEQKPVAKVVNDNAPQTAKEPDYLDIPAFLRKQAD
notes: FtsZ, Escherichia coli, wild type; Unlabelled in the co-sedimentation assay; labelled with Alexa fluor succinimidyl ester (0.5-5.0 mol/mol) in the degradation reactions; Assembles into polymers with GTP; also called wild type FtsZ
Which results are given for B5?
binding result [2]: binds; binding result (ClpX(E185Q)): binds

B6: FtsZ(K380A) (natural protein, E. coli, UniProt P0A9A6 1-383, looked up)
chain: MFEPMELTNDAVIKVIGVGGGGGNAVEHMVRERIEGVEFFAVNTDAQALRKTAVGQTIQIGSGITKGLGAGANPEVGRNAADEDRDALRAALEGADMVFIAAGMGGGTGTGAAPVVAEVAKDLGILTVAVVTKPFNFEGKKRMAFAEQGITELSKHVDSLITIPNDKLLKVLGRGISLLDAFGAANDVLKGAVQGIAELITRPGLMNVDFADVRTVMSEMGYAMMGSGVASGEDRAEEAAEMAISSPLLEDIDLSGARGVLVNITAGFDLRLDEFETVGNTIRAFASDNATVVIGTSLDPDMNDELRVTVVATGIGMDKRPEITLVTNKQVQQPVMDRYQQHGMAPLTQEQKPVAKVVNDNAPQTAKEPDYLDIPAFLRAQAD
notes: FtsZ, Escherichia coli, substitution K380A; source: E. coli BL21 (λDE3), purified like wild type FtsZ
Does B6 bind [2]?
Result: binds

B7: FtsZ(R379E) (natural protein, E. coli, UniProt P0A9A6 1-383, looked up)
chain: MFEPMELTNDAVIKVIGVGGGGGNAVEHMVRERIEGVEFFAVNTDAQALRKTAVGQTIQIGSGITKGLGAGANPEVGRNAADEDRDALRAALEGADMVFIAAGMGGGTGTGAAPVVAEVAKDLGILTVAVVTKPFNFEGKKRMAFAEQGITELSKHVDSLITIPNDKLLKVLGRGISLLDAFGAANDVLKGAVQGIAELITRPGLMNVDFADVRTVMSEMGYAMMGSGVASGEDRAEEAAEMAISSPLLEDIDLSGARGVLVNITAGFDLRLDEFETVGNTIRAFASDNATVVIGTSLDPDMNDELRVTVVATGIGMDKRPEITLVTNKQVQQPVMDRYQQHGMAPLTQEQKPVAKVVNDNAPQTAKEPDYLDIPAFLEKQAD
notes: FtsZ, Escherichia coli, substitution R379E; source: E. coli BL21 (λDE3), purified like wild type FtsZ
Does B7 bind [4]?
Result: binds

B8: FtsZ(352AAA) (natural protein, E. coli, UniProt P0A9A6 1-383, looked up)
chain: MFEPMELTNDAVIKVIGVGGGGGNAVEHMVRERIEGVEFFAVNTDAQALRKTAVGQTIQIGSGITKGLGAGANPEVGRNAADEDRDALRAALEGADMVFIAAGMGGGTGTGAAPVVAEVAKDLGILTVAVVTKPFNFEGKKRMAFAEQGITELSKHVDSLITIPNDKLLKVLGRGISLLDAFGAANDVLKGAVQGIAELITRPGLMNVDFADVRTVMSEMGYAMMGSGVASGEDRAEEAAEMAISSPLLEDIDLSGARGVLVNITAGFDLRLDEFETVGNTIRAFASDNATVVIGTSLDPDMNDELRVTVVATGIGMDKRPEITLVTNKQVQQPVMDRYQQHGMAPLTQEQAAAAKVVNDNAPQTAKEPDYLDIPAFLRKQAD
notes: source: E. coli BL21 (λDE3), purified like wild type FtsZ
Does B8 bind (ClpX(E185Q))?
Result: binds

Does B8 bind [4]?
Result: binds

B9: FtsZ(356AAA) (natural protein, E. coli, UniProt P0A9A6 1-383, looked up)
chain: MFEPMELTNDAVIKVIGVGGGGGNAVEHMVRERIEGVEFFAVNTDAQALRKTAVGQTIQIGSGITKGLGAGANPEVGRNAADEDRDALRAALEGADMVFIAAGMGGGTGTGAAPVVAEVAKDLGILTVAVVTKPFNFEGKKRMAFAEQGITELSKHVDSLITIPNDKLLKVLGRGISLLDAFGAANDVLKGAVQGIAELITRPGLMNVDFADVRTVMSEMGYAMMGSGVASGEDRAEEAAEMAISSPLLEDIDLSGARGVLVNITAGFDLRLDEFETVGNTIRAFASDNATVVIGTSLDPDMNDELRVTVVATGIGMDKRPEITLVTNKQVQQPVMDRYQQHGMAPLTQEQKPVAAAANDNAPQTAKEPDYLDIPAFLRKQAD
notes: as for B8
Does B9 bind [2]?
Result: binds

Does B9 bind (ClpX(E185Q))?
Result: binds

From article PMC3983244, “Location of Dual Sites in E. coli FtsZ Important for Degradation by ClpXP; One at the C-Terminus and One in the Disordered Linker” (PLoS ONE, 2014)
